Changes are numbered by the printed parent chain. Names may count otherwise. Non-standard residues stand in square brackets, D forms with d. No end group written: not given here. pT = C[C@@H](OP(=O)(O)O)[C@H](N)C(=O)O A value given as a limit tells only on which side of the number the result lay.

The target in one experiment is T1, kindlin-2 (Homo sapiens, UniProt Q96AC1).
T1 sequence (Q96AC1 1-680): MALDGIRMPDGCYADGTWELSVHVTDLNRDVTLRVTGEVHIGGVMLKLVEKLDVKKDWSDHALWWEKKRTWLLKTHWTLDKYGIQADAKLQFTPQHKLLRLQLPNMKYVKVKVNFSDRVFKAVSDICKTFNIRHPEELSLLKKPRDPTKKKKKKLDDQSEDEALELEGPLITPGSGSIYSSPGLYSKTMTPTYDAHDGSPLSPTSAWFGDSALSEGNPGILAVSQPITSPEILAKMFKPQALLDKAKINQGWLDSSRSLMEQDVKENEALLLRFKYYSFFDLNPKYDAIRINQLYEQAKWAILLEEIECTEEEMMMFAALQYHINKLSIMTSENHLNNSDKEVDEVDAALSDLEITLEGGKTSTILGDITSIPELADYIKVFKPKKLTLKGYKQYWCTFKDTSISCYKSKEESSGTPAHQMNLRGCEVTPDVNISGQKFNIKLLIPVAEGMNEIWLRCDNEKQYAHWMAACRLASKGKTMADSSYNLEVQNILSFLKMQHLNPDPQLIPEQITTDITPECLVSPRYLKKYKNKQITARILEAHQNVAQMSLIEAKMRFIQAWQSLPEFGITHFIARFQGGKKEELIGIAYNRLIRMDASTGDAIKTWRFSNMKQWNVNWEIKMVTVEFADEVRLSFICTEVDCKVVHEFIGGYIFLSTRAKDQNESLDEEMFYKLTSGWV
Nature of the experiment: Microscale thermophoresis (MST) affinity measurement. It counts as binding. The settings on record: 200 nM Atto488-labeled β1-tail peptide, 20 mM Tris pH 7.5, 200 mM NaCl, 1 mM TCEP, 0.05% Tween-20.

The target of another experiment is FNIII7-10^ΔRGD. Briefly: AFM-based single-cell force spectroscopy (binding probability); single fibroblast on a concanavalin A-coated cantilever brought onto glass coated with 50 μg/ml FN fragment; contact force 200 pN, contact time ~300 ms, 37°C, 1 μM cilengitide.
For the next experiment, the target named is FNIII7-10^RGD. The experiment is described as above.
Experiment [1] concerns the target T2, recombinant talin-1 head domain (THD).
T2 chain: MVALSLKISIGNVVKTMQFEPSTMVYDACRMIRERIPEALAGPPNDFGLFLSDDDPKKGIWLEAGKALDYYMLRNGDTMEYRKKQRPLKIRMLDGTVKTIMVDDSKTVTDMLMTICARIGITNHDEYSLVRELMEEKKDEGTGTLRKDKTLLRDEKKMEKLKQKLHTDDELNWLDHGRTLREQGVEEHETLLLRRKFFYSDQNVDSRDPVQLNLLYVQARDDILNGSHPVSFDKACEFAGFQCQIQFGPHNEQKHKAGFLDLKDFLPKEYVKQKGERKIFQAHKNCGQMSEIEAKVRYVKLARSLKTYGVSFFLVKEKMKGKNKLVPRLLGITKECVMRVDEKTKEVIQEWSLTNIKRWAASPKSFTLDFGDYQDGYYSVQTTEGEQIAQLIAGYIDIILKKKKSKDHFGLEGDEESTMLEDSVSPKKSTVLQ
Nature of the experiment: MST.

In the next experiment the target is T3, recombinant kindlin-2 (UniProt Q8CIB5 1-680).
T3 chain: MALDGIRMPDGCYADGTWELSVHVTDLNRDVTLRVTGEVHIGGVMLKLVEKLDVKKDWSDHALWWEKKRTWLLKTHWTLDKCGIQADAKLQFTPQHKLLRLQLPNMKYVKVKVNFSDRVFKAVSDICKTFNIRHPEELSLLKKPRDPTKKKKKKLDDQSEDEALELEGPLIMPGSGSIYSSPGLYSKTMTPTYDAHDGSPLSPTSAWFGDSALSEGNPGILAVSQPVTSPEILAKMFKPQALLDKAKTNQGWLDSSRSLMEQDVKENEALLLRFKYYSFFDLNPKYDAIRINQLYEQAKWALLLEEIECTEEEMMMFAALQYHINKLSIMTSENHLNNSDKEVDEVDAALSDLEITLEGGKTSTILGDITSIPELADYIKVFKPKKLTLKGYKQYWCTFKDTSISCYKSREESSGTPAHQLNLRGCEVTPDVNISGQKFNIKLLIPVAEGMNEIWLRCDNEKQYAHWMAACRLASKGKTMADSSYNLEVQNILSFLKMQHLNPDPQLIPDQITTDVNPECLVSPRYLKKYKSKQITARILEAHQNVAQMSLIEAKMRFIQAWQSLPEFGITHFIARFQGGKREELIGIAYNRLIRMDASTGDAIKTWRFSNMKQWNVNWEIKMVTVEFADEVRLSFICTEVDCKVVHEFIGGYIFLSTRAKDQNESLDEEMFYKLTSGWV
Briefly: MST.

In the case of “HDRREFAKFEKEKMNAKWDTGENPIAKSAVTTVVNPKYEGK [β1-Y783A]”, the Kd at kindlin-2 turned out to be 4.9 ± 0.7 µM.
In turn, “β1-TT/AA integrin on β1-KO fibroblasts (from UniProt P09055 21-798) (receptor)” returned a percent of binding probability experiments with more than one unbinding event in the experiment with FNIII7-10^ΔRGD of less than 3%. Moreover, in the experiment with FNIII7-10^RGD, the percent of binding probability experiments with multiple unbinding events was 7.7%.
On to “β1-TT/DD integrin on β1-KO fibroblasts (from UniProt P09055 21-798) (receptor)”, for which, in the experiment with FNIII7-10^ΔRGD, the percent of binding probability experiments with more than one unbinding event was less than 3%. This molecule came in with a percent of binding probability experiments with multiple unbinding events in the experiment with FNIII7-10^RGD of 3.8%.
Turning to “β1-TT/EE integrin on β1-KO fibroblasts (from UniProt P09055 21-798) (receptor)”, the percent of binding probability experiments with more than one unbinding event in the experiment with FNIII7-10^ΔRGD is less than 3%. Further, in the experiment with FNIII7-10^RGD, the percent of binding probability experiments with multiple unbinding events stood at 4.6%.
The matching figures for “β1-WT integrin on β1-KO fibroblasts (β1-class integrins) (from UniProt P09055 21-798) (receptor)”: less than 3% and 32.3%.

B1: β1-pTpT peptide, Atto488-labeled (peptide)
peptide: HDRREFAKFEKEKMNAKWDTGENPIYKSAV[pT][pT]VVNPKYEGK
modifications: also: Atto488 label, position not given here
Regarding B1, the Kd in experiment [1] turned out to be 140 µM.

B2: β1-TT/DD peptide, Atto488-labeled (peptide)
chain: HDRREFAKFEKEKMNAKWDTGENPIYKSAVDDVVNPKYEGK
modifications: also: Atto488 label, position not given here
On to B2, for which the Kd in experiment [1] is 170 µM.

B3: β1-TT/AA peptide, Atto488-labeled (peptide)
chain: B2 chain with D31A, D32A
modifications: also: Atto488 label, position not given here
Turning to B3, the Kd turned out to be 100 µM in experiment [1] and 151 µM in the experiment with recombinant kindlin-2.

B4: β1-Y783A peptide, Atto488-labeled (peptide)
peptide: B2 chain with Y26A, D31T, D32T
modifications: also: Atto488 label, position not given here
In the case of B4, the Kd in the experiment with recombinant kindlin-2 was 4.9 µM.

B5: β1-WT peptide, Atto488-labeled (peptide)
peptide: B2 chain with D31T, D32T
modifications: also: Atto488 label, position not given here
Turning to B5, the Kd in experiment [1] stood at 140 µM.

For the origin of these results see paper PMC8761493, “New insights into the phosphorylation of the threonine motif of the β1 integrin cytoplasmic domain” (Life Science Alliance, 2022).
